Target: GAL4 DBD-BEAF-32B (Drosophila)
Assay: two-hybrid; GAL4 AD fusions (pOAD) against GAL4 DBD fusions (pOBD2) in yeast; 50 to 100 colonies with both plasmids scored for growth on medium lacking adenine and histidine, with X-α-Gal

GAL4 DBD-BEAF-32B (Drosophila), sequence (main, as listed by the source): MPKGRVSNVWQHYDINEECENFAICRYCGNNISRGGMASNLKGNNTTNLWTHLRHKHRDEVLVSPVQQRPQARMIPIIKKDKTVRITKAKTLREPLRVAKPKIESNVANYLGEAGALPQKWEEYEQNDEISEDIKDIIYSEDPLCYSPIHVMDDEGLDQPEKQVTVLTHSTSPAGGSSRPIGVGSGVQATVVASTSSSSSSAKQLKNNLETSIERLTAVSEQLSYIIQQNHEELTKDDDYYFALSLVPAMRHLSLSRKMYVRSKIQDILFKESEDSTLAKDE

In the case of GAL4 AD-Pbro BD4–5 (domain or fragment), the % of Y2H colonies expressing the reporter genes is reported as 20%.

Reference: article PMC9635645
